# Experimental data as given in PMC7773321.
# Experiments:
# Neutrophil elastase = Neutrophil elastase (UniProt P08246)
# UniProt P08246, sequence (P08246 30-267): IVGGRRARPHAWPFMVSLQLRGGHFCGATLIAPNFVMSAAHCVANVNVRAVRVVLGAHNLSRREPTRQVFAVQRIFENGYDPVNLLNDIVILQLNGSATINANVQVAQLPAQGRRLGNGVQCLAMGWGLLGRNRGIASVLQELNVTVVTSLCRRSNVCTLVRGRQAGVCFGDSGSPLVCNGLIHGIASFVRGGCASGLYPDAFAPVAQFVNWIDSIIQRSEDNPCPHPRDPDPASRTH
Substance,"cleavage of the FRET peptide Dabcyl-…-Edans by factor Xa with 15 nM ecotin, relative fluorescence units after 60 min (0-60 min followed; 350 RFU without ecotin) (Factor Xa) [RFU]","IC50 of inhibition of NE activity (fluorometric NE activity assay, 25 nM NE, 0-50 nM ecotin, 37°C) (Neutrophil elastase) [nM]"
"Ecotin from E. coli, C-terminal His6 fusion (from UniProt P23827 21-162) (natural protein)",21.3,4.64
"Ecotin from Campylobacter rectus, C-terminal His6 fusion (natural protein)",48,4.49
"Ecotin from Campylobacter showae, C-terminal His6 fusion (natural protein)",17.7,4.78
